Data as given in the supplement of paper PMC10065799, “High-throughput profiling of sequence recognition by tyrosine kinases and SH2 domains using bacterial peptide display” (eLife, 2023).

Columns and labels:
MERTK = MERTK (UniProt Q12866); assay: phosphorylation enrichment, bacterial display (enrichment ratio); higher = better substrate or ligand; peptides without Tyr show the background
Fer (mouse) = assay: as above
Jak2 = Jak2 (UniProt O60674); assay: as above
Fyn = Fyn (UniProt P06241); assay: as above
Chain of Fyn (P06241 whole entry, looked up): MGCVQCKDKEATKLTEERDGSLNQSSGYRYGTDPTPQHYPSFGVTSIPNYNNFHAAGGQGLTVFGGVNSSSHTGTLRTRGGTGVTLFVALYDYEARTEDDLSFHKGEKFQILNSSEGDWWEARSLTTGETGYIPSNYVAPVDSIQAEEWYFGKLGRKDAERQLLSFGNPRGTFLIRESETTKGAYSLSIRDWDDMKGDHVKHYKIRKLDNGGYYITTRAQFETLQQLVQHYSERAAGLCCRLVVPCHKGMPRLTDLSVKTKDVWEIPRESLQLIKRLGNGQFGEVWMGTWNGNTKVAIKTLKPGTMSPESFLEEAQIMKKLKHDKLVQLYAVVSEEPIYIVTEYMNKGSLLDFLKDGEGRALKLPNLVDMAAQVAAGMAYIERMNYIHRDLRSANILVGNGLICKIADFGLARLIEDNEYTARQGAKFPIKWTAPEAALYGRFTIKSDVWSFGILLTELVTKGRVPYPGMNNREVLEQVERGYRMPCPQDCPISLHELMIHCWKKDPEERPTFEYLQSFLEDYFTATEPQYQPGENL

FGFR3 = FGFR3 (UniProt P22607); assay: as above
EPHB2 = EPHB2 (UniProt P29323); assay: as above
EPHB1 = EPHB1 (UniProt P54762); assay: as above
Chain of EPHB1 (P54762 whole entry, looked up): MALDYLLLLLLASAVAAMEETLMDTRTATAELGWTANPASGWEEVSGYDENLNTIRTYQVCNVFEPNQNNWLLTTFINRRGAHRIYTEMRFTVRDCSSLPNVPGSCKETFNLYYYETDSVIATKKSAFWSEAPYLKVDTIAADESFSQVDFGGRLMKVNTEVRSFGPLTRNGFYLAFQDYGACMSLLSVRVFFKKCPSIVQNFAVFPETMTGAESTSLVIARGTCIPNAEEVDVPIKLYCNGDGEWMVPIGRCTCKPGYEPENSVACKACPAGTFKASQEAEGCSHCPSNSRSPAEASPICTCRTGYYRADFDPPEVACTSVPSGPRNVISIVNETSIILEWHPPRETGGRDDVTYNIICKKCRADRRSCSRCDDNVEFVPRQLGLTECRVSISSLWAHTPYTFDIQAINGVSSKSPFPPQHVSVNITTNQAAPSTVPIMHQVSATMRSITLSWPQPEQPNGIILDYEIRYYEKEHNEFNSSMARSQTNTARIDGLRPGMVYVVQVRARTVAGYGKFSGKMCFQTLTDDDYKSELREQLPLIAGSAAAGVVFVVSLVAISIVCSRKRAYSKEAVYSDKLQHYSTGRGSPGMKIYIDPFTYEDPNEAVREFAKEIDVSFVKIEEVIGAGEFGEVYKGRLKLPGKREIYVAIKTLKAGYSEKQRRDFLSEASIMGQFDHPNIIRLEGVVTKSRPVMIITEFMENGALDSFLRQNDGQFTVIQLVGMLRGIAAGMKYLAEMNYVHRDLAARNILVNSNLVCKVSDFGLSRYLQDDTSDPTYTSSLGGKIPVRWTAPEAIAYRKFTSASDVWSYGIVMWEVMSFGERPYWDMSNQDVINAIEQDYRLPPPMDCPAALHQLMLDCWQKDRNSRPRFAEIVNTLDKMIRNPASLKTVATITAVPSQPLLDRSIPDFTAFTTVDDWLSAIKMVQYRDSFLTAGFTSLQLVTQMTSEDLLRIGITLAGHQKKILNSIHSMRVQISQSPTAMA

Hck = Hck (UniProt P08631); assay: as above
Chain of Hck (P08631 whole entry, looked up): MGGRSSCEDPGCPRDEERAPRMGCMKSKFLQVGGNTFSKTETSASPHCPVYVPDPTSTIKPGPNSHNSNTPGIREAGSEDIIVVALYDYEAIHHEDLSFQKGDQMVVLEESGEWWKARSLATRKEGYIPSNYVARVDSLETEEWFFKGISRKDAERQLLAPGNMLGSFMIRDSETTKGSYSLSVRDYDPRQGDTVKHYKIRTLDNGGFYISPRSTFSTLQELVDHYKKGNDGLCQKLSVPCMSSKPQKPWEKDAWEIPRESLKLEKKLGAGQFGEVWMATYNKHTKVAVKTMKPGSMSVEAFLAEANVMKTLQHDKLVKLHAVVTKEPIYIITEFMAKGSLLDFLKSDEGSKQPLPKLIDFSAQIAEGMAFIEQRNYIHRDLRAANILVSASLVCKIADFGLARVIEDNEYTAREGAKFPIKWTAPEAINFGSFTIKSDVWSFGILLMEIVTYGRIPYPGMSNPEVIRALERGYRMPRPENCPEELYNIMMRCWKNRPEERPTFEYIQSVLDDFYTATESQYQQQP

AncSZ = assay: as above
Fes = Fes (UniProt P07332); assay: as above
FGFR1 = FGFR1 (UniProt P11362); assay: as above
Chain of FGFR1 (P11362 whole entry, looked up): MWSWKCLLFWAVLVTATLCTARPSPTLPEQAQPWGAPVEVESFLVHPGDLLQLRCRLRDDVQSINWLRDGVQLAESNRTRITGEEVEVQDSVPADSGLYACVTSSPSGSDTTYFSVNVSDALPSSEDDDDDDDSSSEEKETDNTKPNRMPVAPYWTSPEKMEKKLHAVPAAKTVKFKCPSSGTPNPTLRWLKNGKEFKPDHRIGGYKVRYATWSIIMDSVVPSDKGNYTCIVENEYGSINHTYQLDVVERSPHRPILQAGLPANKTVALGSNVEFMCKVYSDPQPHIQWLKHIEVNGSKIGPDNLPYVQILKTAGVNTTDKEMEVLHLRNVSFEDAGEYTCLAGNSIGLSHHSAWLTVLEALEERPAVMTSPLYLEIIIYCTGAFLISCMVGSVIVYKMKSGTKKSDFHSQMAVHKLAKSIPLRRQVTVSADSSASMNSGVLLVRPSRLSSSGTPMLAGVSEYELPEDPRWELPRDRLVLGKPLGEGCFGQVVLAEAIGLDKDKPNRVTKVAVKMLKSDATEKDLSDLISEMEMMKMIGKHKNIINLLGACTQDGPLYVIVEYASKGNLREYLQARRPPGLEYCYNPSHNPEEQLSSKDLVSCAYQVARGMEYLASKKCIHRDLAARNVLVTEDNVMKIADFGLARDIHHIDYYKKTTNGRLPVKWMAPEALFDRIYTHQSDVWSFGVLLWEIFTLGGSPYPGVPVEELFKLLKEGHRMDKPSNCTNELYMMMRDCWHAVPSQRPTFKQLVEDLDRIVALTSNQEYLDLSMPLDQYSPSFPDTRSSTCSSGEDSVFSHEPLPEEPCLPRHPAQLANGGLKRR

c-Src = assay: as above
c-Abl (mouse) = assay: as above
SHP2-C SH2 = assay: SH2 binding enrichment of the phosphorylated peptide, bacterial display (enrichment ratio); higher = better substrate or ligand; peptides without Tyr show the background
c-Src SH2 = assay: as above
Grb2 SH2 = Grb2 SH2 (UniProt P62993); assay: as above
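Wherever SH2 binding enrichment of the phosphorylated peptide, bacterial display is given: peptide library displayed on the E. coli surface as eCPX fusions, selected cells deep-sequenced, score is each peptide's frequency after selection divided by its frequency in the input.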
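Wherever phosphorylation enrichment, bacterial display is given: 11-residue human phosphosite peptides and single-mutation variants displayed on the E. coli surface, counted by deep sequencing, each peptide's frequency after selection divided by its frequency in the unselected input library; frequency after pTyr selection over input frequency; kinase dosed for 20-30% of maximal phosphorylation in three min.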

Chain of MERTK (Q12866 whole entry, looked up): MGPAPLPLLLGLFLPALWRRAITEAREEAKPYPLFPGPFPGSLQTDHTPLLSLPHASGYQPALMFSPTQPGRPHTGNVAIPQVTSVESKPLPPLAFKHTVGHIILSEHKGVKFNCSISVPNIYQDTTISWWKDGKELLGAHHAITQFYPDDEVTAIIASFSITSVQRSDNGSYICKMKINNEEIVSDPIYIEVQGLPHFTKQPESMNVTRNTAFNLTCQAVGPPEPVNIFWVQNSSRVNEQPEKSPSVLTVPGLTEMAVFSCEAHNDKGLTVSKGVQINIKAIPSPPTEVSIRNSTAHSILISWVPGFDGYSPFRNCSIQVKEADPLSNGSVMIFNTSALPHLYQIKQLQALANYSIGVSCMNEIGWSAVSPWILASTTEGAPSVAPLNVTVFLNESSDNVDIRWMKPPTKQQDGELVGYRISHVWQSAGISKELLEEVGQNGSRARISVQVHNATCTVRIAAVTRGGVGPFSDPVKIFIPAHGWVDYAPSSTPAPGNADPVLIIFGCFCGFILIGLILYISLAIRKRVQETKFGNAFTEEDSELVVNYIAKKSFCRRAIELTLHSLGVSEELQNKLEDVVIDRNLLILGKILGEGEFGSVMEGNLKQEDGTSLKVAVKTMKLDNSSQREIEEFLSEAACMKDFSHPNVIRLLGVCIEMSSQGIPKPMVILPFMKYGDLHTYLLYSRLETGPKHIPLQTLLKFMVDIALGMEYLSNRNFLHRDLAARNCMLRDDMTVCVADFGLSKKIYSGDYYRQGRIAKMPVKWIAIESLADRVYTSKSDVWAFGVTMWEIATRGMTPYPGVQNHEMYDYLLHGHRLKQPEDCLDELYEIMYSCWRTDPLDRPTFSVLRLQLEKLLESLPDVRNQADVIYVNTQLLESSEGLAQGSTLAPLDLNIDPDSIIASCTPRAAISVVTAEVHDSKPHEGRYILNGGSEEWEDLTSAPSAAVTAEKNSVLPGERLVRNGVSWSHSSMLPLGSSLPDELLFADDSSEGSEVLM
Chain of Jak2 (O60674 whole entry, looked up): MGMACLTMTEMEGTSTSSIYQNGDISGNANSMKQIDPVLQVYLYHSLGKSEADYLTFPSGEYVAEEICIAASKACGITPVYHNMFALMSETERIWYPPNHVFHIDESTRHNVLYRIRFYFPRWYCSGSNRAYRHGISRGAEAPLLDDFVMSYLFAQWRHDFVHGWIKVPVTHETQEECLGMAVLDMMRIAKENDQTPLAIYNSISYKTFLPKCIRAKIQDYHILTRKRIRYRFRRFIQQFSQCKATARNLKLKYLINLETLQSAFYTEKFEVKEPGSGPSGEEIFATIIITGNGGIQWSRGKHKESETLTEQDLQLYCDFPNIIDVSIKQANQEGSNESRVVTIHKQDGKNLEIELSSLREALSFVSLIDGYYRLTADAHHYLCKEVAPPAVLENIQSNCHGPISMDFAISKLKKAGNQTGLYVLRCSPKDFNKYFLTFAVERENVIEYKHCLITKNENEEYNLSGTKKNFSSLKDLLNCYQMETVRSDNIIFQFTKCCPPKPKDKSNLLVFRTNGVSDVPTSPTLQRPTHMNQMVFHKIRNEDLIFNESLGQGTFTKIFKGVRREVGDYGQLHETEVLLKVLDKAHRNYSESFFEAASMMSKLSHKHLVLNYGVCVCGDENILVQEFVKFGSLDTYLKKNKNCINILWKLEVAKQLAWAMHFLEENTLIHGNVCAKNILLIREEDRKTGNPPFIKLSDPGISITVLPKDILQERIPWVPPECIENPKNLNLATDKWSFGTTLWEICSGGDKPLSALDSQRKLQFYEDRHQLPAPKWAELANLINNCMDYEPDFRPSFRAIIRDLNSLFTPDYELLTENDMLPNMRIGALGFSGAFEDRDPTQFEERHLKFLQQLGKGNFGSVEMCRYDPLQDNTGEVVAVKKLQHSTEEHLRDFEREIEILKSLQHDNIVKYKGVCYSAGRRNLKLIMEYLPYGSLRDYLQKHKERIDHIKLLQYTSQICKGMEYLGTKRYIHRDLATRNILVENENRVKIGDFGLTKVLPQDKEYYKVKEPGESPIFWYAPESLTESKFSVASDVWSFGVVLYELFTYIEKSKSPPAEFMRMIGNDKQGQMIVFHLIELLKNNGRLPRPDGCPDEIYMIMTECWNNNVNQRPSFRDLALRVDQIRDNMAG

Sequence | SH2 binding enrichment (SHP2-C SH2) | SH2 binding enrichment (c-Src SH2) | SH2 binding enrichment (Grb2 SH2) | phosphorylation enrichment (MERTK) | phosphorylation enrichment (Fer (mouse)) | phosphorylation enrichment (Jak2) | phosphorylation enrichment (Fyn) | phosphorylation enrichment (FGFR3) | phosphorylation enrichment (EPHB2) | phosphorylation enrichment (EPHB1) | phosphorylation enrichment (Hck) | phosphorylation enrichment (AncSZ) | phosphorylation enrichment (Fes) | phosphorylation enrichment (FGFR1) | phosphorylation enrichment (c-Src) | phosphorylation enrichment (c-Abl (mouse))
GHPFAYDWISI [BEST1_Y227_L224P_YF] | 0.869 | 1.72 | 1.36 | 6.57 | 14.7 | 0.774 | 0.478 | 1.29 | 0.721 | 0.932 | 0.811 | 1.04 | 1.22 | 2.03 | 0.629 | 0.562
FQEKGYNKEPR [CHRND_Y38_L42P] | 0.981 | 0.67 | 1 | 0.644 | 0.571 | 0.691 | 0.649 | 0.569 | 0.627 | 0.738 | 0.655 | 0.895 | 0.868 | 0.587 | 0.57 | 0.912
SNSATYSGSVA [PDLIM5_Y382] | 0.572 | 0.39 | 0.691 | 0.516 | 0.392 | 0.48 | 0.561 | 0.483 | 0.497 | 0.347 | 0.56 | 0.748 | 0.624 | 0.432 | 0.498 | 0.576
PADSGYPAYLG [ATP6V1A_Y374] | 0.62 | 0.614 | 1.11 | 0.417 | 0.798 | 0.823 | 1.05 | 0.892 | 0.468 | 1.77 | 0.735 | 1.18 | 1.51 | 0.755 | 0.592 | 1.14
FKDFFYCWNTF [AICDA_Y146_YF] | 0.631 | 0.423 | 0.696 | 2.55 | 1.41 | 1.73 | 0.618 | 1.09 | 0.804 | 0.862 | 0.624 | 1.87 | 1.93 | 0.749 | 1.25 | 1.19
LLTALYFISRG [KCNH2_Y780] | 1.99 | 2.43 | 2.34 | 3.27 | 0.716 | 1.25 | 0.732 | 0.71 | 0.859 | 0.645 | 1.24 | 1.57 | 1.69 | 0.8 | 1.81 | 1.05
LIDTVYSSSSA [OR4C12_Y71] | 0.734 | 0.551 | 0.603 | 0.641 | 0.96 | 1.19 | 3.74 | 1.32 | 0.782 | 0.757 | 3.42 | 1.06 | 1.57 | 0.979 | 3.25 | 1.03
SDVCMYRKNIF [SYNE2_Y570_YF] | 0.74 | 0.554 | 0.794 | 0.448 | 0.354 | 0.931 | 0.371 | 0.712 | 0.479 | 0.536 | 0.355 | 0.906 | 1.12 | 0.48 | 0.436 | 0.793

Second part, led by results:

SH2 binding enrichment (SHP2-C SH2) | SH2 binding enrichment (c-Src SH2) | SH2 binding enrichment (Grb2 SH2) | Sequence | phosphorylation enrichment (MERTK) | phosphorylation enrichment (Fer (mouse)) | phosphorylation enrichment (Jak2) | phosphorylation enrichment (Fyn) | phosphorylation enrichment (FGFR3) | phosphorylation enrichment (EPHB2) | phosphorylation enrichment (EPHB1) | phosphorylation enrichment (Hck) | phosphorylation enrichment (AncSZ) | phosphorylation enrichment (Fes) | phosphorylation enrichment (FGFR1) | phosphorylation enrichment (c-Src) | phosphorylation enrichment (c-Abl (mouse))
0.625 | 0.938 | 0.874 | CNRADYSKLAS [GNE_Y22_P27S] | 0.441 | 0.398 | 0.621 | 0.377 | 0.47 | 0.572 | 0.393 | 0.376 | 1.04 | 0.95 | 0.367 | 0.369 | 0.453
0.766 | 0.645 | 1.3 | EWRSPYGLTPR [GRIN3B_Y601] | 0.484 | 0.434 | 0.459 | 0.657 | 0.442 | 0.473 | 0.413 | 0.474 | 0.569 | 0.636 | 0.403 | 1.28 | 0.486
0.629 | 0.438 | 0.799 | GIVEEYQLPFF [BMPR1A_Y453_YF] | 0.588 | 0.587 | 1.34 | 0.591 | 0.822 | 0.724 | 0.599 | 0.604 | 3.31 | 1.35 | 0.812 | 0.746 | 2.24
0.515 | 0.478 | 0.933 | RPFFLYVAFHN [SGSH_Y174_D179N] | 0.453 | 0.405 | 0.762 | 0.321 | 0.837 | 0.491 | 0.74 | 0.327 | 1.04 | 0.918 | 0.564 | 0.33 | 0.472
0.612 | 0.366 | 0.737 | VLTSKYPGGGG [HBA1_Y141_R142P] | 0.392 | 0.303 | 0.441 | 0.344 | 0.342 | 0.374 | 0.229 | 0.296 | 0.349 | 0.443 | 0.28 | 0.276 | 0.342
0.54 | 0.428 | 0.729 | SQPASYQRRLL [PPIG_Y320] | 0.316 | 0.286 | 0.35 | 0.53 | 0.396 | 0.337 | 0.313 | 0.253 | 0.394 | 0.451 | 0.472 | 0.365 | 0.301
0.578 | 0.497 | 0.819 | STFVPCEIKVQ [L1CAM_Y784_Y784C] | 0.386 | 0.669 | 1.39 | 0.49 | 1.05 | 0.727 | 0.685 | 0.589 | 1.3 | 1.61 | 0.579 | 0.444 | 1.04
0.799 | 0.857 | 1.14 | RETSLYKACER [ASB2_Y162_P160S] | 0.719 | 0.762 | 1.31 | 0.481 | 0.558 | 0.609 | 0.59 | 0.9 | 1 | 0.954 | 0.548 | 0.939 | 0.85
